B1: LINE1-full (parent)
chain: UACGUAGGUGGUUUUCCCCUGAUAGUGCUAAGGGGGCCUGGAAGUUUGGACUGGGCAGAGCUCAACACAGCGUGGCAAAGUGGCUGUGGCUAGACUGCCUCUCUGGAUUCCUCGUCACUCAGCAGGGCAUCUCUGAGAGAAAUGCC

Variants of: B1
Test: self-cleavage, relative activity (ratio to wild type); higher = more cleavage; in vitro, sequencing; the parent is a self-cleaving ribozyme
Work on UACGUAGGUGGUUUUCCCCUGAUAGUGCUAAGGGGGCCUGGAAGUUUGGACUGGGCAGAGCUCAAUACAGCGUGGCAAAGUGGCUGUGGCUAGACUGCCUCUCUGGAUUCCUCGUCACUCAGCAGGGCGUCUCUGAGAGAAAUGCC [C66U A129G] yielded a self-cleavage of 0.01. UACGUAGGUGGUUUUCCCCUGAUAGUGCUAAGGGGGCCUGGAAGUUUGGACUGGGCAGAGCUCAAAACAGCGUGGCAAAGUGGCUGUGGCUAGACUGCCUCUCUGGAUUCCUCGUCACUCAGCAGGGCAUCUCUGAGAGAAAUGCC [C66A] gave a self-cleavage of 0.05. Variant UACGUAGGUGGUUUUCCCCUGAUAGUGCUAAGGGGGCCUGGAAGUUUGGACUGGGCAGAGCUCAAGACAGCGUGGCAAAGUGGCUGUGGCUAGACUGCCUCUCUGGAUUCCUCGUCACUCAGCAGGGCAUCUCUGAGAGAAAUGCC [C66G] has a self-cleavage of 0.04. UACGUAGGUGGUUUUCCCCUGAUAGUGCUAAGGGGGCCUGGAAGUUUGGACUGGGCAGAGCUCAAUACAGCGUGGCAAAGUGGCUGUGGCUAGACUGCCUCUCUGGAUUCCUCGUCACUCAGCAGGGCAUCUCUGAGAGAAAUGCC [C66U] gave a self-cleavage of 0.05. Work on UACGUAGGUGGUUUUCCCCUGAUAGUGCUAAGGGGGCCUGGAAGUUUGGACUGGGCAGAGCUCAAUACAGCGUGGCAAAGUGGCUGUGGCAAGACUGCCUCUCUGGAUUCCUCGUCACUCAGCAGGGCAUCUCUGAGAGAAAUGCC [C66U U91A] yielded a self-cleavage of 0.05. Work on UACGUAGGUGGUUUUCCCCUGAUAGUGCUAAGGGGGCCUGGAAGUUUGGACUGGGCAGAGCUCAACCCAGCGUGGCAAAGUGGCUGUGGCUAGACUGCCUCUCUGGAUUCCUCGUCACUCAGCAGGGCAUCUCUGAGAGGAAUGCC [A67C A140G] yielded a self-cleavage of 0.06. UACGUAGGUGGUUUUCCCCUGAUAGUGCUAAGGGGGCCUGGAAGUUUGGACUGGGCAGAGCUCAUCACAGCGUGGCAAAGUGGCUGUGGCUAGACUGCCUCUCUGGAUCCCUCGUCACUCAGCAGGGCAUCUCUGAGAGAAAUGCC [A65U U109C] gave a self-cleavage of 0.18. Variant UACGUAGGUGGUUUUCCCCUGAUAGUGCUAAGGGGGCCUGGAAGUUUGGACUGGGCAGAGCUCAAUACAGCGUGGCAGAGUGGCUGUGGCUAGACUGCCUCUCUGGAUUCCUCGUCACUCAGCAGGGCAUCUCUGAGAGAAAUGCC [C66U A78G] has a self-cleavage of 0.04. For UACGUAGGUGGUUUUCCCCUGAUAGUGCUAAGGGGGCCUGGAAGUUUGGACUGGGCAGAGCUCAACCCAGCGUGGCGAAGUGGCUGUGGCUAGACUGCCUCUCUGGAUUCCUCGUCACUCAGCAGGGCAUCUCUGAGAGAAAUGCC [A67C A77G], the self-cleavage was 0.22. Variant UACGUAGGUGGUUUUCCCCUGAUAGUGCUAAGGGGGCCUGGAAGUUUGGACUGGGCAGAGCUCAACCCGGCGUGGCAAAGUGGCUGUGGCUAGACUGCCUCUCUGGAUUCCUCGUCACUCAGCAGGGCAUCUCUGAGAGAAAUGCC [A67C A69G] has a self-cleavage of 0. UACGUAGGUGGUUUUCCCCUGAUAGUGCUAAGGGGGCCUGGAAGUUUGGACUGGGCAGAGCUCAAAACAGCGUGGCAAAGUGGCUGUGGCUAGACUGCCUCUCUGGGUUCCUCGUCACUCAGCAGGGCAUCUCUGAGAGAAAUGCC [C66A A107G] showed a self-cleavage of 0.03. Variant UACGUAGGUGGUUUUCCCCUGAUAGUGCUAAGGGGGCCUGGAAGUUUGGACUGGGCAGAGCUCAAAACAGCGUGGCAAAGUGGCUGUGGCUAGACUGCCUCUCUGGUUUCCUCGUCACUCAGCAGGGCAUCUCUGAGAGAAAUGCC [C66A A107U] has a self-cleavage of 0.05. UACGUAGGUGGUUUUCCCCUGAUAGUGCUAAGGGGGCCUGGAAGUUUGGACUGGGCAGAGCUCAAUACAGCGUGGCAAAGUGGCUGUGGCUGGACUGCCUCUCUGGAUUCCUCGUCACUCAGCAGGGCAUCUCUGAGAGAAAUGCC [C66U A92G] showed a self-cleavage of 0.02. Variant UACGUAGGUGGUUUUCCCCUGAUAGUGCUAAGGGGGCCUGGAAGUUUGGACUGGGCAGAGCUCAAGACAGCGUGGCAAAGAGGCUGUGGCUAGACUGCCUCUCUGGAUUCCUCGUCACUCAGCAGGGCAUCUCUGAGAGAAAUGCC [C66G U81A] has a self-cleavage of 0.02. With UACGUAGGUGGUUUUCCCCUGAUAGUGCUAAGGGGGCCUGGAAGUUUGGACUGGGCAGAGCUCAUCACAGCGUGGCAAAGUGGCUGUGGCUAGACUGCCUCUCUGGAUUCCUCGUCACGCAGCAGGGCAUCUCUGAGAGAAAUGCC [A65U U119G] the self-cleavage was 0.45. For UACGUAGGUGGUUUUCCCCUGAUAGUGCUAAGGGGGCCUGGAAGUUUGGACUGGGCAGAGCUCAUCACAGCGUGGCAAAGUGGCUGUGGCUAGACUGCCUCUCUGGAUUCCUCGUCACCCAGCAGGGCAUCUCUGAGAGAAAUGCC [A65U U119C], the self-cleavage was 0.19. UACGUAGGUGGUUUUCCCCUGAUAGUGCUAAGGGGGCCUGGAAGUUUGGACUGGGCAGAGCUCAAUACAGCGUGGCAAAGUGGCUGUGGCUAGACUGCCUCUCUGGGUUCCUCGUCACUCAGCAGGGCAUCUCUGAGAGAAAUGCC [C66U A107G] gave a self-cleavage of 0.03. UACGUAGGUGGUUUUCCCCUGAUAGUGCUAAGGGGGCCUGGAAGUUUGGACUGGGCAGAGCUCAAUACAGCGUGGCAAAGUGGCUGUGGCUAGACUGCCUCUCUGGAUUCCUCGUCACUCAGCAGGGCAUCUCUGAGAGAACUGCC [C66U A142C] showed a self-cleavage of 0.04. UACGUAGGUGGUUUUCCCCUGAUAGUGCUAAGGGGGCCUGGAAGUUUGGACUGGGCAGAGCUCAAAACAGCGUGGCAAAGUGGCUGUGGCUAGACUGCCUCUCUGGAUUCCUCGCCACUCAGCAGGGCAUCUCUGAGAGAAAUGCC [C66A U115C] showed a self-cleavage of 0.05. UACGUAGGUGGUUUUCCCCUGAUAGUGCUAAGGGGGCCUGGAAGUUUGGACUGGGCAGAGCUCAAUACAGCGUGGCAAAGUGGCUGUGGCUAGACUGCCUCUCUGGAUUCCUCGUCGCUCAGCAGGGCAUCUCUGAGAGAAAUGCC [C66U A117G] showed a self-cleavage of 0.05. Variant UACGUAGGUGGUUUUCCCCUGAUAGUGCUAAGGGGGCCUGGAAGUUUGGACUGGGCAGAGCUCAAUACAGCGUGGCAAAGUGGCUGUGGCUAGACUGCCUCUCUGGAUUCCUCGCCACUCAGCAGGGCAUCUCUGAGAGAAAUGCC [C66U U115C] has a self-cleavage of 0.01. Variant UACGUAGGUGGUUUUCCCCUGAUAGUGCUAAGGGGGCCUGGAAGUUUGGACUGGGCAGAGCUCAAUACAGCGUGGCGAAGUGGCUGUGGCUAGACUGCCUCUCUGGAUUCCUCGUCACUCAGCAGGGCAUCUCUGAGAGAAAUGCC [C66U A77G] has a self-cleavage of 0.07. With UACGUAGGUGGUUUUCCCCUGAUAGUGCUAAGGGGGCCUGGAAGUUUGGACUGGGCAGAGCUCAACCCAGCGUGGCAAAGUGGCUGUGGCUGGACUGCCUCUCUGGAUUCCUCGUCACUCAGCAGGGCAUCUCUGAGAGAAAUGCC [A67C A92G] the self-cleavage was 0.05. UACGUAGGUGGUUUUCCCCUGAUAGUGCUAAGGGGGCCUGGAAGUUUGGACUGGGCAGAGCUCAACCCAGCGUGGCAAAGUGGCUGUGGCUAGGCUGCCUCUCUGGAUUCCUCGUCACUCAGCAGGGCAUCUCUGAGAGAAAUGCC [A67C A94G] showed a self-cleavage of 0. Work on UACGUAGGUGGUUUUCCCCUGAUAGUGCUAAGGGGGCCUGGAAGUUUGGACUGGGCAGAGCUCAUCACAGCGUGGCAAAGUGGCUGUGGCUAGACUGCCUCUCUGGAUUCCUCGUCACUCAGCAGGGCAUCCCUGAGAGAAAUGCC [A65U U132C] yielded a self-cleavage of 0.2. With UACGUAGGUGGUUUUCCCCUGAUAGUGCUAAGGGGGCCUGGAAGUUUGGACUGGGCAGAGCUCAUCACAGCGUGGCAAAGUGGCUGUGGCUAGACUGCCUCUCUGGAUUCCUCGUCACUCAGCAGGGCAUCUCAGAGAGAAAUGCC [A65U U134A] the self-cleavage was 0.13. Work on UACGUAGGUGGUUUUCCCCUGAUAGUGCUAAGGGGGCCUGGAAGUUUGGACUGGGCAGAGCUCAUCACAGCGUGGCAAAGUGGCUGUGGCUAGACUGCCUCUCUGGAUUCCUCGUCACUCAGCAGGGCAUCUCUGAGAGAAACGCC [A65U U143C] yielded a self-cleavage of 0.24. UACGUAGGUGGUUUUCCCCUGAUAGUGCUAAGGGGGCCUGGAAGUUUGGACUGGGCAGAGCUCAUCACAGCGUGGCAAAGUGGCUGUGGCUAGACUGCCUCUCUGGAUUCCUCGUCACUCAGCAGGGCAUCUCUGAGAGAAAAGCC [A65U U143A] showed a self-cleavage of 0.06. Variant UACGUAGGUGGUUUUCCCCUGAUAGUGCUAAGGGGGCCUGGAAGUUUGGACUGGGCAGAGCUCAAUACAGCGUGGCAAAGUGGCUGUGGCUAGACUGCCUCUCCGGAUUCCUCGUCACUCAGCAGGGCAUCUCUGAGAGAAAUGCC [C66U U104C] has a self-cleavage of 0.05. UACGUAGGUGGUUUUCCCCUGAUAGUGCUAAGGGGGCCUGGAAGUUUGGACUGGGCAGAGCUCAACCCAGCGUGGCAAAGUGGCUGUGGCUAGACUGCCUCUCUGGAUUCCUCGUCAGUCAGCAGGGCAUCUCUGAGAGAAAUGCC [A67C C118G] gave a self-cleavage of 0.05. Variant UACGUAGGUGGUUUUCCCCUGAUAGUGCUAAGGGGGCCUGGAAGUUUGGACUGGGCAGAGCUCAUCACAGCGUGGCAAAGUGGCUGUGGCUAGACUGCCUCUCUGGAUUCCCCGUCACUCAGCAGGGCAUCUCUGAGAGAAAUGCC [A65U U112C] has a self-cleavage of 0.26. Work on UACGUAGGUGGUUUUCCCCUGAUAGUGCUAAGGGGGCCUGGAAGUUUGGACUGGGCAGAGCUCAAUACAGCGUGGCAAAGUGGCGGUGGCUAGACUGCCUCUCUGGAUUCCUCGUCACUCAGCAGGGCAUCUCUGAGAGAAAUGCC [C66U U85G] yielded a self-cleavage of 0.03. UACGUAGGUGGUUUUCCCCUGAUAGUGCUAAGGGGGCCUGGAAGUUUGGACUGGGCAGAGCUCAAUACAGCGUGGCAAAGUGGCUGUGGCUAGACUGCCUCUCUGGAUUCCUCGUCACCCAGCAGGGCAUCUCUGAGAGAAAUGCC [C66U U119C] gave a self-cleavage of 0.04. For UACGUAGGUGGUUUUCCCCUGAUAGUGCUAAGGGGGCCUGGAAGUUUGGACUGGGCAGAGCUCAACCCAGCGUGGCAAAGUGGCUGUGGCUAGACUGCCUCUCUGGAUUCCUCGUCGCUCAGCAGGGCAUCUCUGAGAGAAAUGCC [A67C A117G], the self-cleavage was 0. In the case of UACGUAGGUGGUUUUCCCCUGAUAGUGCUAAGGGGGCCUGGAAGUUUGGACUGGGCAGAGCUCAACCCAGCGUGGCAAAGUGGCUGUGGCUAGACUGCCUCUCUGGAUUCCUCGUCACUCAGCGGGGCAUCUCUGAGAGAAAUGCC [A67C A124G], the self-cleavage is reported as 0.06. For UACGUAGGUGGUUUUCCCCUGAUAGUGCUAAGGGGGCCUGGAAGUUUGGACUGGGCAGAGCUCAAUACAGCGUGGCAAAGUGGCUGUGGCUAGACUGCCACUCUGGAUUCCUCGUCACUCAGCAGGGCAUCUCUGAGAGAAAUGCC [C66U U100A], the self-cleavage was 0.02. UACGUAGGUGGUUUUCCCCUGAUAGUGCUAAGGGGGCCUGGAAGUUUGGACUGGGCAGAGCUCAAUACAGCGAGGCAAAGUGGCUGUGGCUAGACUGCCUCUCUGGAUUCCUCGUCACUCAGCAGGGCAUCUCUGAGAGAAAUGCC [C66U U73A] showed a self-cleavage of 0.03. With UACGUAGGUGGUUUUCCCCUGAUAGUGCUAAGGGGGCCUGGAAGUUUGGACUGGGCAGAGCUCAAAACAGCGUGGCAAAGUGGCUGUGGCUAGACUGCCUCUCUGGAUUCCUCGUCACUCAGCUGGGCAUCUCUGAGAGAAAUGCC [C66A A124U] the self-cleavage was 0.04. Variant UACGUAGGUGGUUUUCCCCUGAUAGUGCUAAGGGGGCCUGGAAGUUUGGACUGGGCAGAGCUCAACCCAGCGUGGCAAAGUGGCUGUGGCUAGACUGCCUCUCUGGAUUCCUCGUCACUCAGCAGGGCGUCUCUGAGAGAAAUGCC [A67C A129G] has a self-cleavage of 0.
